Bounds are passed on as bounds.

Assay [1] has as its target T1, mouse FcRn (mouse, UniProt Q61559 22-297; P01887 21-119).
T1 construct: also called mFcRn
T1 sequence (looked up) 1: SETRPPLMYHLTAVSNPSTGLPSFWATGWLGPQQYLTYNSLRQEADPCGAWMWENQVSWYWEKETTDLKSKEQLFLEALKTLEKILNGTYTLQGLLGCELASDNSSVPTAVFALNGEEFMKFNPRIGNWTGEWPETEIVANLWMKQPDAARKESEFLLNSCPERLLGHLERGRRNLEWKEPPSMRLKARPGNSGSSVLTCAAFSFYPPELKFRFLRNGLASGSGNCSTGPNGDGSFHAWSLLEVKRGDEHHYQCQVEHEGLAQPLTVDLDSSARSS
T1 sequence (looked up) 2: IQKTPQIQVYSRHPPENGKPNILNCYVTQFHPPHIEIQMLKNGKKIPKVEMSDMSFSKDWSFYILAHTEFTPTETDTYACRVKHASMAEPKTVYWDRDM
Put plainly: pH 5.6.

Assay [2] addresses T1, mouse FcRn.

B1: mouse surrogate Multabody (HD37, mouse ferritin), LALAP Fc (other, not shown: a dimerising Fc or GST; large carriers; small tags and cut ends)
chain 1: KPCPPCKCPAPNAAGGPSVFIFPPKIKDVLMISLSPIVTCVVVDVSEDDPDVQISWFVNNVEVHTAQTQTHREDYNSTLRVVSALPIQHQDWMSGKEFKCKVNNKDLGAPIERTISKPKGSVRAPQVYVLPPPEEEMTKKQVTLTCMVTDFMPEDIYVEWTNNGKTELNYKNTEPVLDSDGSYFMYSKLRVEKKNWVERNSYSCSVVHEGLHNHHTTKSFSRTPGKGGSSGSGSGSTGTSSSGTGTSAGTTGTSASTSGSGSGGGGGSGGGGSAGGTATAGASSGSGSSGSSSSGGTGKPCPPCKCPAPNAAGGPSVFIFPPKIKDVLMISLSPIVTCVVVDVSEDDPDVQISWFVNNVEVHTAQTQTHREDYNSTLRVVSALPIQHQDWMSGKEFKCKVNNKDLGAPIERTISKPKGSVRAPQVYVLPPPEEEMTKKQVTLTCMVTDFMPEDIYVEWTNNGKTELNYKNTEPVLDSDGSYFMYSKLRVEKKNWVERNSYSCSVVHEGLHNHHTTKSFSRTPGKSRASTASSASSGGGGGGSGGSGGSGGSMTSQIRQNYSTEVEAAVNRLVNLHLRASYTYLSLGFFFDRDDVALEGVGHFFRELAEEKREGAERLLEFQNDRGGRALFQDVQKPSQDEWGKTQEAMEAALAMEKNLNQALLDLHALGSARTDPHLCDFLESHYLDKEVKLIKKMGNHLTNLRRVAGPQPAQTGAPQGSLGEYLFERLTLKHD
chain 2: MTSQIRQNYSTEVEAAVNRLVNLHLRASYTYLSLGFFFDRDDVALEGVGHFFRELAEEKREGAERLLEFQNDRGGRALFQDVQKPSQDEWGKTQEAMEAALAMEKNLNQALLDLHALGSARTDPHLCDFLESHYLDKEVKLIKKMGNHLTNLRRVAGPQPAQTGAPQGSLGEYLFERLTLKHD
notes: also called mLALAP MB; Fc-modified MB (LALAP mutation)
Turning to B1, in assay [1], the Kd was under 1 pM and the koff was under 1e-07 s⁻¹. The kon in assay [2] worked out at 2.4e+06 M⁻¹ s⁻¹.

Values taken from patent US20250263469A1 (HOSPITAL FOR SICK CHILDREN, published 2025).
